How the values were obtained:
[1] = molecular target: TEBP-2-His5 (Caenorhabditis elegans) (UniProt Q22429); assay: fluorescence polarization; settings: FP: 20 mM HEPES pH 7.0, 100 mM NaCl, 5% glycerol, 20 nM probe, 10 min at RT; pull-down: 50 mM Tris/HCl pH 7.5, 150 mM NaCl, 0.5% NP-40, 5 mM MgCl2, 1 mM DTT …
[2] = molecular target: TEBP-1-His5 (Caenorhabditis elegans) (UniProt O62329); assay: fluorescence polarization; settings: FP: 20 mM HEPES pH 7.0, 100 mM NaCl, 5% glycerol, 20 nM probe, 10 min at RT; pull-down: 50 mM Tris/HCl pH 7.5, 150 mM NaCl, 0.5% NP-40, 5 mM MgCl2, 1 mM DTT …

TEBP-2-His5 (Caenorhabditis elegans), sequence (Q22429 entry or part of it): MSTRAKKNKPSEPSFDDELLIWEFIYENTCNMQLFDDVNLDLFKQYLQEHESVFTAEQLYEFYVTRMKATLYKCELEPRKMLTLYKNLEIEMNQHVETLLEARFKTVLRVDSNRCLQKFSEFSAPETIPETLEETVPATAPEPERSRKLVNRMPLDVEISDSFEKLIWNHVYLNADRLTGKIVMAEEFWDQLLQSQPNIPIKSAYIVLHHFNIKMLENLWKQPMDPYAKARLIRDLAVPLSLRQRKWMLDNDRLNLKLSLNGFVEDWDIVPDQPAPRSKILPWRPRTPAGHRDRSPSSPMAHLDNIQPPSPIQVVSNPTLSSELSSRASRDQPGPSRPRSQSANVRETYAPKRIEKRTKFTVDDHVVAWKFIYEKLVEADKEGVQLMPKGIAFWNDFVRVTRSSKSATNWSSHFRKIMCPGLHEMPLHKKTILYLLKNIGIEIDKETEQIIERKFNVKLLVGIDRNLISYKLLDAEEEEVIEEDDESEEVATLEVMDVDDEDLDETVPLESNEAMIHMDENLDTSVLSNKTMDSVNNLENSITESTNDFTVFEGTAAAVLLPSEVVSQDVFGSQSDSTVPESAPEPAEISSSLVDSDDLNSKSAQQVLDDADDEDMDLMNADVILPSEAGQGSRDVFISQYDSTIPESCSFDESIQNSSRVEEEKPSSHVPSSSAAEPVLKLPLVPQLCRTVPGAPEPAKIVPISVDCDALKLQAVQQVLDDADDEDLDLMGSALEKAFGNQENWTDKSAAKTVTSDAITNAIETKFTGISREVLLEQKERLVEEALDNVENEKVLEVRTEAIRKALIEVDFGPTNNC

For “CTGTTAGGCTTAGGCTTAG (double strand) [2.5x TTAGGC ds]”, the Kd [1] was 37.8 nM and the Kd [2] was 129 nM.
